Measured values: publication PMC3553987

Target: c-Myc;Max isoform (human;human, UniProt P01106;P61244 16-454;2-160, |)
Test: TIRF-PBM

Sequence of c-Myc;Max isoform (P01106 16-454, chain 1 of 2): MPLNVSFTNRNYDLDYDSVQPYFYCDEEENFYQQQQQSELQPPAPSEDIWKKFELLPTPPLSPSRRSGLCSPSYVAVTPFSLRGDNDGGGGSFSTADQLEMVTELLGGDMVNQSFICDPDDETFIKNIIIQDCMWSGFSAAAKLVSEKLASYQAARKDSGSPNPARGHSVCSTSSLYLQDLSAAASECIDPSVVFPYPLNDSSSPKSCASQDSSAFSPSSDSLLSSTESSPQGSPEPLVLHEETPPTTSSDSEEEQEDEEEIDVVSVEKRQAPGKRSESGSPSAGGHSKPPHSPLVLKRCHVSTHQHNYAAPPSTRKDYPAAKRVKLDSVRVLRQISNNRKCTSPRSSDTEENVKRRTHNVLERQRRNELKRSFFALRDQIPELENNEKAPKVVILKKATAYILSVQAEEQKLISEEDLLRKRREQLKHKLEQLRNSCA
Sequence of c-Myc;Max isoform (P61244 2-160, chain 2 of 2): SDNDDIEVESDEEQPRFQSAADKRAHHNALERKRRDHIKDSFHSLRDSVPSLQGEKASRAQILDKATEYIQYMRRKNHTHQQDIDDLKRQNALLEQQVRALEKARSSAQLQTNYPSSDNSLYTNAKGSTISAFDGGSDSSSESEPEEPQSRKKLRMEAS

B1: sequence 7 (12 A repeat) (dsDNA)
DNA 1: GCTACGAGCGCAAAAAAAAAAAAATGATAGCAAGCTCAAGTCAATCGGTCC
DNA 2: GGACCGATTGACTTGAGCTTGCTATCATTTTTTTTTTTTTGCGCTCGTAGC
modifications: 5' amino on one strand, coupled to hydrogel
- binding result: binds
